The source of these data is US20220112288A1 (published 2022).

To fix the notation:
B1: 75110_08A13A (antibody, V domains shown)
VH: EVQLVESGGGLVQPGGSLRLSCAASGFIFSSYWMSWVRQAPGKGLEWVANIKQDGSEKYYMDSVKGRFTISRDNAKNSLYLQMNSLRAEDTAVYYCARDNSYYYYGMDVWGQGTTVTVSS
VL: AIQMTQSPSSLSASVGDRVTITCRASQGIRDDLGWYQQKPGKAPKLLIFAASSLQSGVPSSFSGSGSGTDFTLTISSLQPEDFATYYCLHHYNYPYTFGQGTKLEIK
notes: Non-clonal AlivaMab Mouse Kappa hybridoma supernatant, captured by anti-mouse IgG Fc (human V regions, mouse Fc)
B2: 75110_04G02A (antibody, V domains shown)
VH: not shown
VL: DIVMTQSPDSLAVSLGERATINCKSSQSVLYSSNNKNYLAWYQQKPGQPPKLLFYWASARESGVPDRFSGSGSGTDFTLTISSLQAEDVALYYCQQYFGSFPTFGQGTKLEIK
notes: as for B1
B3: 75110_05E13A (antibody, V domains shown)
VH: EVQLVESGGDLVKPGGSLRLSCAASGFSFSNAWMSWVRQAPGKGLEWVGRVESKTDGGTTDYAAPVKDRFTISRDDSKYTLYLQMNSLKTEDSAVYYCTIGGGFGLELYGFFDYWGQGTLVTVSS
VL: DIQMTQSPSTLSASVGDRVTITCRASQSISSWLAWYQQKPGKAPMLLIYKASSLESGVPSRFSGSGSGTEFTLTISSLQPDDFATYYCLQYNSYYTFGQGTKLEIK
notes: as for B1
B4: 75110_01C18A (antibody, V domains shown)
VH: EVQLVESGGGLIQPGGSLRLSCAASGFTVSSNYMNWVRQAPGKGLEWVSVIYAGDNTYSADSVKGRFTISRDNSNNTLCLQMNSLRAEDTAVYYCAREGGTTGAFDIWGQGTMVTVSS
VL: DIQMTQSPSSVSASVGDRVTITCRASQGINSWLAWYQQKPGKAPKLLIYAASSLQSGVPSRFSGSGSGTDFTLTISSLQPEDFATYYCQQGNSFPYTFGQGTKLEIK
notes: as for B1
B5: 75110_07J24A (antibody, V domains shown)
VH: QAQLQESGPGLVKPSETLSLTCTVSGGSISSYYYNWIRQPAGKGLEWIGRIYTSGRTDYNPSLKSRVTMSADTSKNQFSLKLSSVTAADTAVYYCARDEGPTDAFDIWGQGTMVTVSS
VL: DIVMTQTPLSLPVTPGEPASISCRSSQSLLDSDDGNTYLDWYLQKPGQSPHLLIYTLSYRASGVPDRFSGSGSGSDFTLKISRVEAEDVGVYYCMQRIEFPFTFGPGTKVDIK
notes: as for B1
B6: 75110_05A11A (antibody, V domains shown)
VH: EVQLVESGGGLVKPGGSLTLSCAASGFTFSNTWMSWVRQAPGKGLEWVGRIKSKIDGGTTDYAAPVKGRFTISRDDSKNTLYLQMNSLKTEDTAVYYCTTSGTYSSGWGLFDYWGQGTLVTVSS
VL: DIQMTQSPSSLSASVGDRVTITCQASQDISNYLNWYQQKPGKAPKLLIYDTSNLEAGVPSRFSGSGSGTHFTLTISSLQPEDIATYYCQQYDNLPFTFGGGTRVEIK
notes: as for B1
B7: 75110_03I08A (antibody, V domains shown)
VH: QVQLQESGPGLVKPSETLSLTCTVSGGSISSYYWSWIRQPPGKGLEWIGYIYYSGSTNYNPSLKSRVTISVDTSKNQFSLKLSSVTAADTAVYYCAREGEQWFYGLDVWGQGTTVTVSS
VL: EIVLTQSPGTLSLSPGERATLSCRASQSVSSTYLAWYQQKPGQAPRLLIYGSSSRATGIPDRFSGSGSGTDFTLTISRLEPEDFAVYYCQQYGNSFPITFGQGTRLEIK
notes: as for B1

The target of one assay is T1, Recombinant human CD4 (R&D Systems, Cat. 10327-CD) (human, UniProt P01730 26-390, limits assumed).
T1 construct: Bought soluble recombinant protein used as analyte at 100 nM; also called huCD4
Put plainly: BLI (Octet Red384), non-clonal supernatant on AMC sensor, 100 nM human CD4. (In general: In BLI a coated tip is dipped into the sample, and binding shifts an interference pattern.)
On to B1, for which the Response is 0.35.
B2: the Response was found to be 0.21.
Turning to B3, the Response is 0.33.
For the molecule B4, the Response was 0.25.
In the case of B5, the Response was 0.14.
Same read-out and setting: then B6, with 0.15.
For the molecule B7, the Response was found to be 0.07.

Another assay deals with T1, Recombinant human CD4 (R&D Systems, …). Description: BLI (Octet Red384), non-clonal supernatant on AMC sensor, 100 nM human CD4, 1:1 local fit.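 Further: hybridoma antibodies captured from supernatant, single CD4 concentration as analyte, association and dissociation phases fitted together, giving single-point kinetic estimates per supernatant.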
In general, Kd refers to the constant that tells how readily two partners part at equilibrium. As usually defined, the koff is a measure of how fast the partners let go of each other. As a reminder, the kon is the second-order rate constant of association. As to B1, the Kd came out at 4.4 nM, the koff worked out at 0.001 s⁻¹ and the kon is 230000 M⁻¹ s⁻¹.
For B2, the Kd is 0.76 nM, the off-rate constant (koff) was 0.00017 s⁻¹ and the kon amounted to 220000 M⁻¹ s⁻¹.
Turning to B3, the equilibrium dissociation constant (Kd) is 7.4 nM, the koff amounted to 0.0012 s⁻¹ and the kon was 160000 M⁻¹ s⁻¹.
As for B4, the equilibrium dissociation constant (Kd) is 16 nM, the koff amounted to 0.0013 s⁻¹ and the kon worked out at 86000 M⁻¹ s⁻¹.
For B5, the Kd was < 0.001 nM, the koff is < 1e-07 s⁻¹ and the on-rate (kon) came out at 77000 M⁻¹ s⁻¹.
With B6, the equilibrium dissociation constant (Kd) amounted to 3.2 nM, the dissociation rate constant (koff) was determined as 0.00055 s⁻¹ and the on-rate constant (kon) was 170000 M⁻¹ s⁻¹.
As for B7, the dissociation constant (Kd) is < 0.001 nM, the dissociation rate constant (koff) is < 1e-07 s⁻¹ and the kon stood at 37000 M⁻¹ s⁻¹.
